{"source": "the DeepSol protein solubility set", "data": [{"assay": "soluble on expression in E. coli; label from the status in PepcDB or PDB records", "values": [{"sequence": "MSLNALDPHDALPWIEETTALELSPSQRSAVTLVLASKVSIITGGPGVGKTTILKAILSVLQREKVSVALCAPTGRAAKRLTESTGIEAKTIHRLLEFDPQAFDFKRGRGNPLDASFVVVDETSMVDVVLMQKLVAAIPDHAAVVFVGDVDQLPSVGPGAVLADMISSEAIPTVRLTEIFRQAAESMIVVNAHRINQGDMPLTAEGEELSDFYVVKAASAEEIHDKVIQLVTERIPKRFGLDAVKDVQVLTPMNKGGVGVHALNAELQAKLNPASEPKVTRFGTTFAPGDKVIQTVNNYDKEVFNGDIGLIEAIDPEAEIATAFFFDHHRAEYDFNDLDELSLAYATSIHKSQGSEYPAVVIPLAMQHFTLLERNLIYTAVTRGRKLVVIVAEPKALTLAIKNCKSKRRLTGLVQRLRESGKQSWQNEGHHHHHH", "soluble on expression in E. coli": "soluble"}, {"sequence": "MSLNASSISSRFKDLFVTPSIVFDFDGTLAIGHGPVLAYALCVAPEGSKDFLERVRRELRRYDDGQSIYRDGYDIVAKLASELGIDDGTMSVAYGESRKLLGSDLAPVEHVRGIKDILSSLKGHARLVLATNAPENGVHDLLRQWGVADLFDQLHFVVGKPAGLISIISDLQLDGPVLAVGDIYEFDLSPAAQLGADTALVGATATISEAKVSMRGDSIADLPLLAWVSSRVSSEGHHHHHH", "soluble on expression in E. coli": "soluble"}, {"sequence": "MSLNCTLDELRQRIEAHRPRQLDTDQRFPQAAVLVPITRSDDPELVLTLRAAGLSTHGGEVAFPGGRRDPEDADLVRTALREAEEEIALPPGLVEVVGPLSTLVSRHGIEVTPYVAFIPDFVEYQPNDGEIAAVFNVPLSFFRDDPREVTHRIDYFGRSWYVPSYRFGEFKIWGLTAIMVVELVNLLYDDPIDLHTPPASFIKLSEGGSHHHHHH", "soluble on expression in E. coli": "soluble"}, {"sequence": "MSLNEHDIYMQDFMTVFASLQHWGPGSEQDSLKAISLMSMQNMQHILDIGCETGLSTLLLAENSSAHITAVDNEPIAIEQLEKQRQHSPWKEQISPVLGSMTALPFAAKSFDAIWAEGCVYIMGMENALKQWKPFLADNAILMVSDLVWLTENPKPEAQEFWQSEYPDIQSIPSRIKLFKKLGYEVMEHFSLGIDAWQNYWLPLQNRVQELKLRLTNSQALSDIEKEIAIYERSAAKDFTYQYFVLKLNHEGHHHHHH", "soluble on expression in E. coli": "not soluble"}, {"sequence": "MSLNEKVALVTGASRGIGFEVAHALASKGATVVGTATSQASAEKFENSMKEKGFKARGLVLNISDIESIQNFFAEIKAENLAIDILVNNAGITRDNLMMRMSEDEWQSVINTNLSSIFRMSKECVRGMMKKRWGRIISIGSVVGSAGNPGQTNYCAAKAGVIGFSKSLAYEVASRNITVNVVAPGFIATDMTDKLTDEQKSFIATKIPSGQIGEPKDIAAAVAFLASEEAKYITGQTLHVNGGMYMA", "soluble on expression in E. coli": "soluble"}, {"sequence": "MSLNELPEFEDYVVLTQQQNQNYKIVQQFNNFDKAILLGTSTFFEGFDFQANGIKCVMIAKLPFMNKHNAKYWLMDSEFTSTFKEYVLPDAVTRFRQGLGRLIRNENDRGIIVSFDDRLINSNYKNFFEQTLENYRQKKGDIQQFGKLLRQIQKEGHHHHHH", "soluble on expression in E. coli": "not soluble"}, {"sequence": "MSLNFDFAENDFRPLAARMRPRTLDEYCGQQHLIGQGKPLRRAIESGHAHSMILWGPPGTGKTTLAEIIAYRINAEVERLSAVTSGVKDIREAIERAKRNRLADRQTILFVDEVHRFNKSQQDAFLPHIEDGTIIFIGATTENPSFELNNALLSRTRVYILKSLTTADVQRVLQQAVADEERGLGKARLNLQANLLHLLAEYVNGDARLALNCLELMADMAEEDENGKKIDRTLLTEVLGERQARFDKGGDRFYDLISAVHKSIRGSAPDAALYWYARIITAGGDPLYVARRLLAIASEDIGNADPRAMQVALSAWDCFTRVGAAEGERAIAQAIVYLAVAPKSNAVYQAFNAAKALAKQAPDYDVPRHLTNAPTQLLKELGNHAEYRYAHDEPNAYAAGENYFPEPLKDTRFYFPGARGMEIKIKEKLDWLRNLDQQSENIREGHHHHHH", "soluble on expression in E. coli": "not soluble"}, {"sequence": "MSLNFEYIINSLLETIKTYNFFVDWEKIENNIKKIEKRLHILNYLIGKENFKEEFFELLKEYPEVITVFPILIAVRDNKITILNENMELETLEFKEKKYLTDEEIERYYKFFKETGLEDLLKNRKIKNLVDYVFGVEVGMDTNARKNRIGDLMENIVKKYIENLCKQNKNLDYIFQATKDKIKQKWGINLTLDKTNRKFDFAVFNKNTKKLYLIEVNFYSGGGSKLKATAGEYRSLNEFIKNNNNNVQFIWITDGKGWNTAKNPLKESFNSGVVILNLKMVKEGLLKEILTQEGHHHHHH", "soluble on expression in E. coli": "soluble"}, {"sequence": "MSLNFLEFEKPIAELEAKIEALRDVSRHGGDSAIDLDKEIEQLEKKSLELKKKIFSDLGAWETAQLARHPLRPYTLDYVQHVFEEFDELAGDRAFADDKAIVGGIARLEGRPVMIIGHQKGRETKEKVRRNFGMPKPEGYRKALRLMEMAERFNMPIITFIDTAGAYPGVGAEERGQSEAIAKNLKVMSGLKVPVICNVVGEGGSGGALAIGVGDYVNMLQYSTYSVISPEGCASILWRDSDKAPQAAEAMGLTAPRLKELELIDEIIEEPLGGAHRDHVKMAENMKATLLRQLEDLEQLDEESLRERRYQRLMNYGYC", "soluble on expression in E. coli": "not soluble"}, {"sequence": "MSLNFYYATSILIKEVVVSTKWLLGISLMLSTVAQANENSNQDTDISIPSPWKHQVEFGYQAHSGNTESESLNSRLKSEYTMGRHRTYGEWKFYKLDKNGKEDKRQSTFAFQSDYKLGPKTYLYGSFYGTNSRYTAYFKDHTLSGGLGYQFAYTDEMVLELELGPGFRYQKPNLDEIDDDDIVFPDLVQEAIFRSNLKAEWQALNNLRFEAEMTMVSGRSNTSLDSNISLTNDITDHIALKIRQSRQYHNRMPEGLSKADSVISVNLLFEFEGHHHHHH", "soluble on expression in E. coli": "not soluble"}, {"sequence": "MSLNGDNQQILREIVLNPTIHGKELESIFGLSRRQLGYRIQKINLWLEQEGYPKLERTSQGNFIVSSEIMTLFKRDVSEQQMLNGNNVIFSIETRRYYLMLMLFSKENAMSLNHFSIDLQVSKNTVIHDINHVKEQLENHGLSLKYSRKHGYEIVGDEFEVRRFFIKLIDQRLNHDITKSEVLKALNLTFEDIAYQKDKIKQVEQFLKSRFIDKSLSSLPYVLCVIRRRIQSGHVMNPLNINYQYLRDTKEYQATEIMTQHEPDLPEAEKLYLTLHLLSTSVQWTDLQESDSISNLTMAIAQMIHHFEQITFINIEDKEKLSQQLLLHLTPAFYRIKYNLTDRDELINPLQGNYQSLFHMVKQSCQSLTEYFGKSLPDNEIAYLTMLFGGSLRREGHHHHHH", "soluble on expression in E. coli": "soluble"}, {"sequence": "MSLNGLKRGFPVMKEQIGGKLICISGIPGTGKSTICNLLNDLGYTCVEGNALAVKYGCLSGDEVDVDCLSDRMRSDNFKGIVAAHYAHLLPCNIVIILEADESALRQRMMDRGYSPEKIDENLDAQRSDTIYAESLERLPANRIFRIRNADLNVALSDILRIIGGRNEGHHHHHH", "soluble on expression in E. coli": "soluble"}, {"sequence": "MSLNIAIFINTPAQFHFYRNIAKELKNRGHFVELLFRDYGENLEIAKELGLNPTVYAKPSDSKYGKILSLPSDVLRATKLLKKFKPDIITGFGVYDAFSSFLVNVPCIVFNDSEPFINSSYAVQFKLFMPFTNVLITPEAFQPNFGTKHINIPSYKEFSYLHPNYYTPKEDIFELIGIEKNEEYILLRFNAFDAVHDAGITGFTKENKIKLVKELEKHCKVFISSETQVPKEIEKNILKTPKSRIHDVLYYAKILITDTQTMTTEAALLGTPALRYNKFVGGKDMSNFIELEKNYGLIFNYQNSEKIFERAFELLNTENLKEIWKKKRELLLKNKIDSTSFMVWFFENYPESFEKMKTDVTIYENFNDNLAKIKGEGHHHHHH", "soluble on expression in E. coli": "soluble"}, {"sequence": "MSLNKSTVDYQNAKILMDNFYSSREININGDNVTIVINDIMYIPSIDELEIKNGDKNLIIKFDRDGNKVKYKDIECIEYLNLKKGEEISLFNKSYIVEDITSNYVILKEKDGKEVLTNESFEYDGYKVVVKLVSSDLNTIIVDIYKNEKVLDSPKLTKGKIYYMKGGTLGLMYENCTRIGKGYRFTFRVYSTIKIEEGEDYPLDKEFKVKEISTDKIKLEYKNIDSLGNEIYLFNYTIIPEKCYKDYVLFKVIKRKEKTVDVKDVAYIGDGIYAVKVNNTVHVFYKGKELKNHEKIYLGSVDVYSSNPLNVNKDIILIGGPKVNKIVKELEDKGLLKVNISTNYPGNNRGIILKIKNPYNDNNIYILAGSDRWGTKAAILVFLTKYNDEDTLMVEWDKGEIKIIKEGHHHHHH", "soluble on expression in E. coli": "soluble"}, {"sequence": "MSLNKTQAQVSHALKSLARKEEWKHRLQQSEELHDILLKAANRYVAGEKRSDGLAIARKLQAKGYGISLENIGENTKLLAQCREAKMEFDQLIEDVGAIAPGQTVSFDLSHIGLSYQFDTAYGHLIELAEKANEHEVTLMISMEESTKTDQILAVYRQAAELYSNIGITLQAHLFRTPDDLRKLVQLPGKIRIVKGAYQEPSHLAMERSDYLNNRYLELVDHLVSTNHPVSVATHDQKLLEEMERRQFLQSTDVEIEMLYGIQPSQLKLFKEKGYQTRVYLTYGHEWFLYLCHRLAEYPENIYTALIDIINPSLPKVDDMYEGHHHHHH", "soluble on expression in E. coli": "soluble"}, {"sequence": "MSLNLAKRILQGEQLTKETVLKIYEDTNIDTLDLLNEAYILRKHYFGKKVKLNMILNAKSGICPENCGYCGQSRDIKQKQRYALIPEEQIIDGAKVAHDNHIGTYCIVMSGRGPSDKEVDHISNTVRTIKSQHPQLKICACLGLTNDEQAKKLKSAGVDRYNHNINTSENYHDNVVTTHSYKDRTDTIELMKANNISPCSGVICGMGESNQDIVDMAFALKEMDADSIPINFLHPIKGTKFGSMDDLTPMKCLRIVALFRLINPTKEIRIAGGREVNLRSLQPLALKAANSIFVGDYLITGGQPNQLDYDMINDLGFEIDYDTCENKENKNDVSRANEGHHHHHH", "soluble on expression in E. coli": "soluble"}, {"sequence": "MSLNLGDLTNFVEKPLAAVSNIVNTPNSAGRYRPFYLRNLLDAVQGRNLNDAVKGKVVLITGGSSGIGAAAAKKIAEAGGTVVLVARTLENLENVANDIRAIRGNGGTAHVYPCDLSDMDAIAVMADQVLGDLGGVDILINNAGRSIRRSLELSYDRIHDYQRTMQLNYLGAVQLILKFIPGMRERHFGHIVNVSSVGVQTRAPRFGAYIASKAALDSLCDALQAETVHDNVRFTTVHMALVRTPMISPTTIYDKFPTLTPDQAAGVITDAIVHRPRRASSPFGQFAAVADAVNPAVMDRVRNRAFNMFGDSSAAKGSESQTDTSELDKRSETFVRATRGIHWEGHHHHHH", "soluble on expression in E. coli": "not soluble"}, {"sequence": "MSLNLQSKKRAWIVGKEHYDLGNDLFSRMLDPYMQYSCAYWKDADTLEAAQQAKLKLICEKLQLQPGMRVLDIGCGWGGLSQYMATHYGVSVVGVTISAEQQKMAQTRCEGLDVSILLEDYRDLNDQFDRIVSVGMFEHVGPKNYNTYFEVVDRNLKPDGLFLLHTIGSKKTDHNVDPWINKYIFPNGCLPSVRQIAEASESHFVMEDWHNFGADYDTTLMAWHERFINAWPEIAGNYNERFKRMFSYYLNACAGAFRARDIQLWQVVFTRGVENGLRVPREGHHHHHH", "soluble on expression in E. coli": "not soluble"}, {"sequence": "MSLNNIDNIINFINKTPKSELHLHIEGSLEPELMFKLSKRNKIEIPFKSVEDIKSAYNFSNLDSFLKIYYEGSNVLITEEDFFDLTWEYILRCKKDNIVHTEIFFDPQSHTSRGIKFDIIINGIHKALAKANDEFGITSKIIMCFLRHLDEKLCFDVLKDAIQHKDKIIGVGLDSSEKGNPPKKFKRLFEEAIKEGFLTVAHAGEEGPPEYIWDSLNLLKVKRIDHGVQCLKDDDLVKNLKENNIPLTVCPLSNIKLCVFDKLENHNLKKMLEKGLRVMVNSDDPAYFGGYLNKNLIEISKALNLNLEQVKVLIQNSFKSSFLDKKSKSKWLSKVEGHHHHHH", "soluble on expression in E. coli": "soluble"}, {"sequence": "MSLNPMIAKQKPNGNIQCLVCNAEIKPKIWTAHVNGKKHRDSIEKLKTSAQKRGKESSTRNTDEPPNKKQKEVPNQGPTTLPTDFFDDESTPFRKDDSKTATVGHNSNLIEGVPAGFFDDKRLDGNVRETRERNAELDAEYERWKEEIGEEQVELDTKAEELEAAVQRELELERIDEQMAALKKLNDMEIQKEKRLNQARERRLKREEPEEEEDDDGEDIDLDALDWRAKNIFA", "soluble on expression in E. coli": "not soluble"}]}]}
